{
  "source": "FireProtDB (doi:10.1016/j.jmb.2009.11.038)",
  "proteins": {"B1": {"name": "wild type, Q5NV88 (protein)", "chain": "NFMLTQPHSVSESPGKTVTISCTRSSGSIASNYVQWYQQRPGSSPTTVIYEDNQRPSGVPDRFSGSIDSSSNSASLTISGLKTEDEADYYCQSYDSSN"}},
  "settings": "Homo sapiens, pH 7.5, Fluorescence, Sodium phosphate 20mM, transition: 2, whole UniProt chain shown",
  "data": [
    {"protein": "B1", "values": [
      {"measurement": "denaturant midpoint (higher = more stable)", "setting": "25 °C, GdnHCl", "value": 1.41, "unit": "M"},
      {"measurement": "unfolding free energy", "setting": "25 °C, GdnHCl", "value": 5.1, "unit": "kcal/mol"},
      {"measurement": "Tm", "setting": "Thermal", "value": 49.9, "unit": "°C"},
      {"measurement": "unfolding enthalpy (calorimetric)", "setting": "Thermal", "value": 86.2, "unit": "kcal/mol"},
      {"measurement": "unfolding free energy", "setting": "Thermal", "value": 5.2, "unit": "kcal/mol"}
    ]}
  ]
}
